Publication PMC4745738

Target: TRAIL-R

TNF-related apoptosis-inducing ligand (TRAIL) (from UniProt P50591 1-281)
inhibition of specific lysis of Nalm6 cells by pDC-activated NK cells (5:1 E:T ratio) with a blocking anti-TRAIL antibody: 50% | inhibition of specific lysis of REH cells by pDC-activated NK cells (5:1 E:T ratio) with a blocking anti-TRAIL antibody: 66%
